Read-outs that look alike come from different tables or passages of the source.
Tests used:
[1] = target: T1, hRad52 (Homo sapiens, UniProt P43351 1-418); assay: FRET titration
T1 sequence: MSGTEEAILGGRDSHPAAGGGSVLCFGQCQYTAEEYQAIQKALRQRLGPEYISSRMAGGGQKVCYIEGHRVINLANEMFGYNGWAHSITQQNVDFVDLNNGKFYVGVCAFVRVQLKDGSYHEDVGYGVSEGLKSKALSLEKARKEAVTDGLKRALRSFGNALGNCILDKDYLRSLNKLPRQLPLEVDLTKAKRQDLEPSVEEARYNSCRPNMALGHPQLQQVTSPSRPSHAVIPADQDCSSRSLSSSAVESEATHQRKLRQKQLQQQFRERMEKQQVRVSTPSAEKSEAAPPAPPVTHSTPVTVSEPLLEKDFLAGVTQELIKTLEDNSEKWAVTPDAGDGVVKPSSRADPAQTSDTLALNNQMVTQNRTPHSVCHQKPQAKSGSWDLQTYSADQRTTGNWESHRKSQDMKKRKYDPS

[2] = target: T2, hRad52 1-212 (Homo sapiens, UniProt P43351 1-212); assay: FRET titration
T2 sequence: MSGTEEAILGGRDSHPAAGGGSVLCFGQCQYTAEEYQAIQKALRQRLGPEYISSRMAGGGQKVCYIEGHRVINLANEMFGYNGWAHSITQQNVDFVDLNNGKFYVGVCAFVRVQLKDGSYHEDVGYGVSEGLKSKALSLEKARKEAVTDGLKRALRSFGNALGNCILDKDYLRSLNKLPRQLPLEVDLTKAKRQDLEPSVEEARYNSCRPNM

[3] = target: T3, hRPA (Homo sapiens, UniProt P27694;P15927;P35244 1-616;1-270;1-121); assay: FRET titration
[4] = target: T1, hRad52; assay: EMSA
[5] = target: T2, hRad52 1-212; assay: FRET titration; remark: listed apart in the source
[6] = target: T3, hRPA; assay: FRET titration; remark: listed apart in the source
[7] = target: T1, hRad52; assay: FRET titration; remark: listed apart in the source
[8] = target: T1, hRad52; assay: FRET titration; remark: listed apart in the source

T3 sequence (P27694 whole entry, chain 1 of 3): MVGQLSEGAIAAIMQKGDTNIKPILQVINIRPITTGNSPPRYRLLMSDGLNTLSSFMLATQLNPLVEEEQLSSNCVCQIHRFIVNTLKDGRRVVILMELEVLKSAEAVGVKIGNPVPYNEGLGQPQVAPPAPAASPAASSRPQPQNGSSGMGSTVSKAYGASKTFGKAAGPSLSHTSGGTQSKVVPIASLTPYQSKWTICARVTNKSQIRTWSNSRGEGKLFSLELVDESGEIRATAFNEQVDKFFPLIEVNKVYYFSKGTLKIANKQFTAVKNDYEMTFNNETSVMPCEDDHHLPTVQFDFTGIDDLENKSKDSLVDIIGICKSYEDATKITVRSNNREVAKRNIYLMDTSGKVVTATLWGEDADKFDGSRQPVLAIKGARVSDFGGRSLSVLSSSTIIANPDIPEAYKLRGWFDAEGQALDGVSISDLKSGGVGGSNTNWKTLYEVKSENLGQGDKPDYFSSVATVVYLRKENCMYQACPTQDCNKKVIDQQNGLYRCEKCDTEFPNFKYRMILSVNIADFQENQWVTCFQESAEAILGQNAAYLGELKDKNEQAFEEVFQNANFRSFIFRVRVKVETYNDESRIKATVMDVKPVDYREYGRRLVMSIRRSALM
T3 sequence (P15927 whole entry, chain 2 of 3): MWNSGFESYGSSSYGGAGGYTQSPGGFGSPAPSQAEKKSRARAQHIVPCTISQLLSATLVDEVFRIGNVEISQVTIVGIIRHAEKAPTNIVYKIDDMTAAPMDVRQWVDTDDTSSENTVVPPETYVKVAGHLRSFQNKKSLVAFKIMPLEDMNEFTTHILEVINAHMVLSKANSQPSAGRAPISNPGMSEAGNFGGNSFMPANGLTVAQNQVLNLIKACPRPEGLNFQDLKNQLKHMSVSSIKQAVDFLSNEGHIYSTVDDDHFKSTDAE
T3 sequence (P35244 whole entry, chain 3 of 3): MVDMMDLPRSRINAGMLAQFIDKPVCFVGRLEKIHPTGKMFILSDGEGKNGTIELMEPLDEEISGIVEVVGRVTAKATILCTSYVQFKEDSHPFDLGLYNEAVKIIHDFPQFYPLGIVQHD

B1: poly(dT)-39 (ssDNA)
DNA: TTTTTTTTTTTTTTTTTTTTTTTTTTTTTTTTTTTTTTT
B1: binds [1].

B2: poly(dT)-30 (ssDNA)
DNA: TTTTTTTTTTTTTTTTTTTTTTTTTTTTTT
B2: binds [2]; binds [3]; binds [4].

B3: poly(dT)-60 (ssDNA)
DNA: TTTTTTTTTTTTTTTTTTTTTTTTTTTTTTTTTTTTTTTTTTTTTTTTTTTTTTTTTTTT
B3: binds [5]; binds [6]; binds [7].

B4: poly(dT)-22 (ssDNA)
DNA: TTTTTTTTTTTTTTTTTTTTTT
B4: binds [8].

B5: poly(dT)-50 (ssDNA)
DNA: TTTTTTTTTTTTTTTTTTTTTTTTTTTTTTTTTTTTTTTTTTTTTTTTTT
B5: binds [1].

— publication PMC2875008
